{"source": "patent US8916159B2", "about": "“Selenocysteine mediated hybrid antibody molecules” (The United States of America, as represented by the …, priority 2007, dated 2014)", "key": {"[1]": {"tested_on": "Raji cells", "assay": "Flow cytometry binding to Raji cells", "set-up": "species or system Human", "settings": "for fluorescence signal on Raji cells after exposure of protein to FITC maleimide derivative: FIG. 11C", "protocol": "Flow cytometry assays were conducted on the resulting conjugates. Human Burkitt's lymphoma cell line Raji was purchased from ATCC. All incubations were for 1 hour on ice. […] After washing twice with 1% (v/v) FCS/PBS, the cells were incubated with a 1:25 dilution of PE-coupled streptavidin (BD Biosciences) or with FITC-coupled goat anti-human Fab polyclonal (Fab′)2 fragments (Jackson ImmunoResearch Laboratories). […] After washing twice as before, the cells were resuspended in 400 μL 1% (v/v) FCS/PBS and analyzed using a FACScan instrument (Becton-Dickinson). For the competition experiment, the cells were first incubated with the anti-CD52 monoclonal antibody CAMPATH® or Rituximab (all 0.6 μM). For detection, a 1:25 dilution of PE-coupled streptavidin (BD Biosciences) was used."}, "[2]": {"target": "T1, integrin α4 (Homo sapiens, UniProt P05556+P13612)", "T1 construct": "endogenous in cells", "assay": "Competition with anti-integrin α4 mAb for binding to integrin α4β1-expressing lymphoma cells", "settings": "PEG-SU-Lys-Lys-mal linker conjugate, FIG. 14", "description": "Using solid-phase synthesis techniques as described in Thomas et al., Bioorg. Medicinal Chem. Letters, 18: 5785-88 (2008), the PEG-SU-Lys-Lys-mal linker was used to couple LLP2A to Fc-Sec. A biotin reporter molecule was employed as described in Example 2 to allow detection of Fc covalent adducts by avidin pull-down experiments followed by ELISA visualization. The Fc-Sec-LLP2A conjugate was then incupated with integrin α4β1-expressing cells. The cells were washed and then treated with Cy5-labeled rabbit anti-human IgG. Under these conditions, cells only fluoresced if both the Fc and LLP2A components of the hybrid construct were present."}, "[3]": {"target": "T2, folate receptor (Homo sapiens, UniProt P15328)", "T2 construct": "endogenous in cells; host or cells: SKOV-3", "T2 sequence (P15328 25-234)": "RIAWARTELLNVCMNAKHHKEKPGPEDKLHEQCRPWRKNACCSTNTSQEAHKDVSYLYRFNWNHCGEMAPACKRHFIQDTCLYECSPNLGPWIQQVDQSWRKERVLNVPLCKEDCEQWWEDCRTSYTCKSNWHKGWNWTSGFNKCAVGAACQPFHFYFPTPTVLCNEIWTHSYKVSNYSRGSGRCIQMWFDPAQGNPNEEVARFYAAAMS", "assay": "Flow cytometry binding to SKOV-3 cells expressing folate receptor", "settings": "SKOV-3, three click reaction conditions, FIG. 17", "protocol": "The results are depicted in the flow cytometry plot of FIG. 17.\nThe folate was further equipped with an alkyne group using methods described in Thomas et al., Poster MEDI-409, 238th ACS National Meeting, Washington, D.C. (Aug. 16-20, 2009). Using azide-alkyne Huisgen cycloaddition (“click chemistry”) under various reaction conditions, biotin-azide was added to the resulting Fc-Sec-His/folate-alkyne. The results of three reaction conditions are also depicted in the flow cytometry plot of FIG. 17."}, "[4]": {"tested_on": "Raji cells", "settings": "0.6 μM; for complement-dependent cytotoxicity with rabbit complement: 10% rabbit complement 2 hours 37° C.", "protocol": "To determine whether Sec-conjugation had any effect on the cytotoxic effects of Rituximab, Raji cells were centrifuged and resuspended in 1% (v/v) FCS/PBS, and aliquots of 50 μL containing 5×10^5 cells were distributed into a V-bottom 96-well plate (Corning). After incubation with Rituximab, Rituxi-Sec-His/fluorescein, or Rituxi-Fab-Sec-His/biotin (0.6 μM) for 1 hour on ice, cells were washed twice and incubated with 10% rabbit complement of 3-4 weeks old rabbits (Pel-Freez) for 2 hours at 37° C. After the addition of 100 μg/ml propidium iodide (PI), dead cells were detected by PI accumulation using a FACScan instrument (Becton-Dickinson)."}, "[5]": {"assay": "Serum levels in mice after i.v. injection, flow cytometry using Raji cells", "type": "in vivo, C57BL/6 mice", "settings": "i.v. 100 μL of 3 mg/mL, bleeds 30 min to 96 h", "protocol": "The mouse study was carried out by Biocon, Inc. (Rockville, Md.) in accordance with the Guide for the Care and Use of Laboratory Animals published by the National Institutes of Health. […] Sera from retro-orbital bleeds were prepared 30 min, 24 h, 48 h, 72 h, and 96 h after injection. Sera were diluted ten-fold in 1% (v/v) FCS/PBS and analyzed by flow cytometry using Raji cells and Cy5-coupled goat anti-human F(ab′)2 polyclonal antibodies (Jackson ImmunoResearch) or PE-coupled streptavidin as described in Example 10 (FIG. 16C)."}}, "note": "Read-outs that look alike come from different tables or passages of the source. Non-standard residues stand in square brackets, D forms with d. Groups on a side chain read outwards from the residue. No end group written: not given here. folate‑alkyne = folate derivative bearing an alkyne group; Sec = N[C@@H](C[SeH])C(=O)O; biotin‑azide = biotin-azide", "data": [{"substance": "Rituximab-stop: Rituximab protein without inserted selenocysteine", "values": [{"measurement": "fluorescence signal on Raji cells after exposure of protein to FITC maleimide derivative", "setting": "[1]", "value": "only basal levels"}]}, {"substance": "Fc-Sec-LLP2A: LLP2A coupled to Fc-Sec using the PEG-SU-Lys-Lys-mal trifunctional linker with biotin reporter (chain (part 1 of 2) EPKSSDKTHTCPPCP; chain (part 2 of 2) Ala-X; not fully specified (some residues); cysteine pairing not given here; also: LLP2A coupled via PEG-SU-Lys-Lys-mal trifunctional linker with biotin reporter, site not given here)", "values": [{"measurement": "binding to lymphoma cells in the presence of anti-integrin α4 mAb", "setting": "[2]", "value": "diminished binding"}]}, {"substance": "Fc-Sec-His/folate-alkyne: Fc-Sec-His folate conjugate equipped with an alkyne group; biotin-azide clicked on (chain (part 1 of 2) EPKSSDKTHTCPPCP; chain (part 2 of 2) A[Sec]([folate‑alkyne-biotin‑azide])HHHHHH; not fully specified; cysteine pairing not given here; also: biotin-azide clicked on)", "values": [{"measurement": "folate binding after biotin-azide click onto alkyne conjugate", "setting": "[3]", "value": "retained its folate binding properties"}]}, {"substance": "Rituximab: commercially available CD20 antibody [reference compound]", "values": [{"measurement": "binding to Raji cells", "setting": "[1]; 0.6 μM, 1 hour on ice, FIG. 11A", "value": "equal affinities"}, {"measurement": "complement-dependent cytotoxicity with rabbit complement", "setting": "[4]", "value": "strong cytotoxic effect"}, {"measurement": "cytotoxicity of antibody alone, without rabbit serum", "setting": "[4]; no rabbit serum, FIG. 12A", "value": "neither the antibody nor rabbit serum alone mediated complement-dependent cytotoxicity"}, {"measurement": "serum signal over the course of the experiment", "setting": "[5]", "value": "only marginal weakening"}]}, {"substance": "Rituximab-Sec-His/fluorescein: Rituximab-Sec-His conjugated at Sec to fluorescein-5-maleimide (FITC derivative with maleimide moiety)", "values": [{"measurement": "fluorescence signal on Raji cells after exposure of protein to FITC maleimide derivative", "setting": "[1]", "value": "clear and homogenous signal"}, {"measurement": "complement-dependent cytotoxicity with rabbit complement", "setting": "[4]; listed as Rituxi-Sec-His/fluorescein", "value": "as potent as Rituximab"}, {"measurement": "complement-dependent cytotoxicity with rabbit complement", "setting": "[4]; listed as Rituximab-Sec-His/FITC", "value": "equal cytotoxicity"}]}]}
